Source: the DeepSol protein solubility set

Test: soluble on expression in E. coli; label from the status in PepcDB or PDB records
With “VHADLAATTSREDFRLLAAEHRVVPVTRKVLADSETPLSAYRKLAANRPGTFLLESAENGRSWSRWSFIGAGAPTALTVREGQAVWLGAVPKDAPTGGDPLRALQVTLELLATADRQSEPGLPPLSGGMVGFFAYDMVRRLERLPERAVDDLCLPDMLLLLATDVAAVDHHEGTITLIANAVNWNGTDERVDWAYDDAVARLDVMTAALGQPLPSTVATFSRPEPRHRAQRTVEEYGAIVEYLVDQIAAGEAFQVVPSQRFEMDTDVDPIDVYRILRVTNPSPYMYLLQVPNSDGAVDFSIVGSSPEALVTVHEGWATTHPIAGTRWRGRTDDEDVLLEKELLADDKERAEHLMLVDLGRNDLGRVCTPGTVRVEDYSHIERYSHVMHLVSTVTGKLGEGRTALDAVTACFPAGTLSGAPKVRAMELIEEVEKTRRGLYGGVVGYLDFAGNADFAIAIRTALMRNGTAYVQAGGGVVADSNGSYEYNEARNKARAVLNAIAAAETLAAPGANRSGC” the “soluble on expression in E. coli” value was “soluble”. For “MDTKVVPKISEKICEKFANIINKKPQKKGKEYKIGVDLGTANVVVAVLNENNEPVAGAMKSAQVVKDGVVVDFVGAKEIVKRMVDFLNEELEGKLRVAACAIPPGTGEGVSKATKYVVEEAGLEVIKVVDEPTAAAKLLEIMDGIVVDIGGGTTGISVLKDGKVVYVADEPTGGTHFTLVLAGHFNISFEEAEKIKLDVQRQKLLTPILKPCMEKVAEIIKRHTFSFDNIDTIYLVGGASALHGLKEVVENTTRKKVIVPQYPIFITPLGIALSCEKG”, the “soluble on expression in E. coli” value was “not soluble”. For “MSSFDKNDERAQLMVPKSINEGKVVKLSQKTLVTKKIERQVVPEEKYIAGLDKIIEKDYFPHLKKMQAQKEYLEAVANKDINKIKELQMKFCSTGSVRTDRSFRTPITTRSTTEAPDVSSFDADTPGPSSASTSSAHDWMQSPMPFANEEGDNEALNRKRKKKKEETLTSYLNKYTSEDNASFEELAKVMREREDARRPWVYKAEEEHNKNLVTRQAIAAEADVQLALKHAVDADDNRPLNVDNWAYKAWNTVLFNPDGAALTPAEIADAARKQQTEINKRGTRFPDSGKLKPSDEAMTRAAVSHALANAGKVDFLGNEVTPANSFKLLETPNPNPDDMDSPLMTWGEIDGTPFRLDAPDVTEHSLPGAAPVFKIPEVPYREKIAQSMNDSIAAKYRDKRKVAMRAAEGAHRTPGFGSKRVSDKLAQLSPAAQKLATKKLGLKMLPAHKSPFASPKIMSNWSRPSSSKRSTTPGSAWSRGSTTPGSSWSQGAQTPGTPGIESMIRRKGDNVGPSTSAGAADRANAGDFF”, the “soluble on expression in E. coli” value was “not soluble”. With “MDPLLTLLYIRHTLTSPWSSSEERDTAKAAMMEEMEKHNMAPYIRLVCEALGVPLDESKLAEMDAINAKKVAAFDARLKDAVDNLGDTEVRDVLQAKCDHYARIGDLEMCMKTNEECAAKTLATGPKLDLYFQRIRLGIAFSDNDIAAKGITDAHRLMKDGDWERRNRLRVYEGIYHVFIRDFQRGSTLLLDSITTFAAGELLTFQDFVFITVVASLPVLSRPELRKRIVYSPEVNRTGVDDVRELVNSIYDCQYNKVFPNLEVVCQHLRKVVYLSPHVSYFFREMRVLIFTQFLDSYSSVTLESMGAAFGIPVPALDSMLCTLISNERIACKVDRVDGSVETYRGDTTNFDYHRIVKSGDLLLNRIQKLSRLVDM” the “soluble on expression in E. coli” value was “not soluble”. With “MKYQLRAIDNQLDEMLQFSGAIAVEGVKGVGKTESAIRRSEHLLQLDRAGDRQLLEADPEFSSFSTGTILIDEWQRMPECWDFVRRGVDAQRTPGRFLLTGSATPQAGIDTHSGAGRILSIRMRPMALFERREHSATVSLADLFLGNAPISGTTDLTLNDYVSEIARSGFPGFNEQPQRAINVELDSYIERIVDRDLPEQGYNVRNRAGLLGWMRAYAAASSTTMSYSEILNAATPGESDKPARKTAALYRSKLTEIWMLDEVPAWDFVRSPLAGLAQAPKHQLADPAFVLRLLGVPANRLVTERYRHFLGPLFESLATLSVRVAAESQFGSVRHLRTRRGDHEVDLIASNQDGDLVAIEVKLTADVKNDDVAHLHWLKEQLPDDVVDMVVLTTGNRAYRRSDGVAVVPLALFGA” the “soluble on expression in E. coli” value was “not soluble”. For “MSRVPYGYEIIQLLEQLAPKQLAMEGDRIGLQIGTLNKPVKKVMIALDVLEDVVVEAIDQQVDLIIAHHPPLYRPLKQLLTDDGHGRMIAACIKHDIAVYAAHTNLDVADGGLNDWLAEALGLNDTAVLVPTYTEPLKKLVVYVPVTHAEVVRKALGDAGAGHIGRYSHCTFNSRGVGTFLPHEGARPFIGEQGRLEEVEEVRIETIVPASLEREAIQAMLAVHPYEEVAYDIYPLDNEGRRFGLGRIGRLPQPVTLGAFAEQVKTAFSVPAVRVVGRLDDLVQTVAVLGGDGNKFVAAAASAGADVYVTGDVYYHTAHDAQALGLHIIDPGHNVEKIMKEGVARYLITELSKRQWEAEVVASSVHTDPFQFV”, the “soluble on expression in E. coli” value was “not soluble”. With “QRHADLIAARAGRPVTITAVCARDRSKNRDADLSGYAWETDAVALAQRADIDVFVEVMGGSEGAARASTEAALAAGKDVVTANKALLAHHGQALAEMAEAAGLAIRFEAAVAGGIPVIKALTEGLAGNQMRRVMGVMNGTCNYILTR” the “soluble on expression in E. coli” value was “not soluble”. For “MSLKSVIIGTAGHIDHGKTSLIKALNGFEGDSLKEEQERQITINLSFSNLKLKDKNISFIDVPGHKDLVKTMVSGAFGFSVCLFVVDINEGLKEQSLEHLEILKILDIKNIILVLSKCDLCENIEQKSVEILEELKNLDYPILKVFHTSIKNNQGIEELKNYLYTIENKENDEELIFHYYIDRVFSLKGIGTVVTGSLNEGSITLNEKIICLDTQKELIVKNIQNHDTNLEQIKACNRVALSLNCDYKELKKGYLLSKKGYFKAFKECDALVKAKNLQNSKMIFCVGSRQIECKINILKKLENDEFFVHFSFDKNVFLSFDEAFILLQNNRVIGGGKVLNPLSEPLKKEQKNKFLMFLKNKDFKAAFSFLKDAHKYGFGLLSSYQRFKLSHQKALKLAKELNQVFVDEKNLNVYHLQSLEEIKNFIKFILEKNPYAMLSAHSLALRITWASENFCELGLKEMSNLLDFQNGIYFKKGIDFEKLQEKNNNQMYEILKKQGIKPEAPYNLYDFLELDREGHHHHHH”, the “soluble on expression in E. coli” value was “soluble”. In the case of “SLQKEANKTYHSSLKDGKLILLLDLDNTLLQATSFAKFNMELPLENFVDDNGEAELYKFYLPQYNFFYYLKFRPYVRQFLQILSLYYELAIYTNATREYADVVIAILDPDRTIFSDRIVARCSSTDRDENKYFSRIYPNVDPKYVIAFDDRKDVWIDIPQSHILKAEHYNFFELSKYDIIS”, the “soluble on expression in E. coli” value is reported as “not soluble”. In the case of “MGDSVLSAIQQTITQRKSANPSESYVAQLLHKGEDKILKKVIEEAGEVLMASKDKNPSHLVYEVADLWFHTMILLTHHDLKAEDVLDELARRQGLSGLVEKAARTES”, the “soluble on expression in E. coli” value is reported as “not soluble”. In the case of “MTVYKGSKKEAKPKECLLFFDKKTNTVRLEKITSNINVKKTRDLDQGTELALKRGIERLRTSSNNQRSGPSSPEEKAKIQKQMQRDTSDSSSDSDGSSDSDKSNGDSSDDEDESEKILLEEMKKPKPYTEREPAPPSSSNTYNHKESHVAPYISSSGNKNKDSEEKYGLALSESSDEDD”, the “soluble on expression in E. coli” value is reported as “not soluble”. For “MMNLHALPTSPRRWQCYDGGNFYQTRLRVSESPNMFKKILFPLVALFMLAGCAKPPTTIEVSPTITLPQQDPSLMGVTVSINGADQRTDQALAKVTRDNQIVTLTASRALRFLLQEVLEKQMTARGYMVGPNGPVNLQIIVSQLYADVSQGNVRYNIATKADIAIIATAQNGNKMTKNYRASYNVEGAFQASNKNIADAVNSVLTDTIADMSQDTSIHEFIKQNAR”, the “soluble on expression in E. coli” value was “not soluble”. With “MLLMRRFAFLTSSVYFKYIPIYSQYHYSSQFPINMNPKKVAQLPVHNKSTLPPQEIIDLFKITFLEELYPKDQDNEKSPLTEQIQAVKSDLYNRDYNAAFNNDSKRIAYCCRWSPSRATSYASVFAHFPELLKIIRCEIDDKDSNVLCIGGGAGGELVALASIFTLSRDFSSKFASALKIDNEVNKKPRNLNIQLVDIADWSTVVEKLTATIKSKWLYGDSEAESFNVNFTHKDCLQMTEPQDIKIYQGLDLITLLFTTNELFTQKKVESIKFLQRLNENCAPGCHLLILESAGSYSHITINNKKFPIQFLIDTILVGNRKDKGTTGPWSLVSENDSIWYRMDPKLDYSIPLENMRFFYRLYVKN” the “soluble on expression in E. coli” value was “not soluble”. For “MPGTLSFPSDAFPAYPALEIDQPDGWVALAGVGLPLALAAEVPSGQFRPNVLVTVQRFGVGHTVADSRSAVNKSLKALPRFTQTLREDSIEMLGSPGMRVEGYFSDGKGGTMVQALRMCVVEAGPVFDVVQITGTCSGPQTEAFFGQIREIQDTLRLAG”, the “soluble on expression in E. coli” value was “not soluble”. For “MVDGFVQPVGEGLADQLVGHQVGYGGVQWDQCLAEVGDVAVVHFFHQAVRQVGFVEQGVEAVVAGEQRRRGEEELLGDLQHRLDPFLDAGFAGHAVGGVEQVRYLFDVGVDEAGEYVFRVLALRLDGAMQVGQAAGYQISQVTVAGFAEVRLLDEFTEGSGVHGVSHTTGMVKKRRNIAGGARRLRRDCHNRFVVMRG”, the “soluble on expression in E. coli” value was “not soluble”. In the case of “MVERLTIIRGVEKFELQTKTARWVLAKEEGYSPVQMLVSAIGACGGYVYQSVLENSHIPFEFEKIEVTYSREVERRAQPLKQVTILFYVTVPEAFQERATRCLKLVSPNCPVIQSLAERITVEETVVFKK”, the “soluble on expression in E. coli” value is reported as “not soluble”. In the case of “MVYFAYGSNLCLEQMKKRCPEAIPMISVHLDDYKLVYNKYADIIPCEGEKVYGAIYEISLNDLKNLDKYEEYSDLYEKIDLIVQDINGISYEAFAYVMNEKGDKTPDKRYLDIINKGYEDWGIIY”, the “soluble on expression in E. coli” value is reported as “not soluble”. With “MGSDKIHHHHHHMRESPLILPFDPAGIALDRSRGLSQQLYQALRARVLDGRLSSGTRLPATRDLAAMLALSRNSVVRAYDQLYAEGFIESRVGDGTYVSRLPKLSTQVSTGLSLGLSTGLSTFRQENTEDLSSGRHISAPLQRLKNNHLPPPRSGLPRAFRVGIPAFDLFPFDVWAKLQAGFWRNPSPAQLGYGDPAGEPALRDLIAAYLRRSRGLSCTAEQIVITSGAQQAISLCAQLLLQPGDGVAVENPGYRAAAHAFTLAGGRVCGVPVDEDGLDCGRLEQLTDCRLTYVTPAHQYPTGVTMSLARRLALLAWAERSDGWIIEDDYDGEYRYSGAPLAPLAALDRHGRVLYVGTFGKIAFPALRLGYLVLPSKLVQAFSQGRAIAVRHSEVSSQCVMAEFMARGHFQRHIRRMRKAALKRRDVLKAGWPVDIPGLGAMPEVAAGLHVKVNVDNFAREQELVAKAEAVEVEVTPLSNFWLADCEVPVDKRAGLVLGFAAVPEGEIAEALMKLRKVWRK” the “soluble on expression in E. coli” value was “not soluble”. With “MKAVVPTGKIYLGSPFYSDAQRERAAKAKELLAKNPSIAHVFFPFDDGFTDPDEKNPEIGGIRSMVWRDATYQNDLTGISNATCGVFLYDMDQLDDGSAFEIGFMRAMHKPVILVPFTEHPEKEKKMNLMIAQGVTTIIDGNTEFEKLADYNFNECPSNPVRGYGIY” the “soluble on expression in E. coli” value was “soluble”. In the case of “MGSDKIHHHHHHAQQAPAPCGLVPSARQLEWYNREMIAFFHFGINTFEEYVNEGDGKASTAIFNPTALDCRQWMQTLKAAGIPAAILTAKHADGFCLWPSKYTDYSVKNAAWKNGKGDVVREFVDACEEYGLKAGIYLGPHDRHEHLSPLYTTERYKEYYAHQLGELMSDYGKIWETWWDGAGADELTTPVYRHWYKIVREKQPDCVIFGTKNSYPFADVRWMGNEAGEAGDPCWATTDSVAIRDEAQYYKGLNEGMLDGDAYIPAETDVSIRPSWFYHAEEDSRVKSVRELWDIYCTSVGRNSVLLLNFPPDRRGLIHSTDSLHAALLKQGIDETFSTNLLRGAKVKATNVRGAKYSPEKMLDNEKNTYFAGKDGEVKADIIFTLPKTIEFDCLMIEEVIELGHRTTKWSVEYTVDGKNWITIPEATDKQAIGHKWIVRLAPVKAKQVRLRIQDGKACPAIHTFGVYKQSPVFKL”, the “soluble on expression in E. coli” value is reported as “not soluble”.
